The values that follow come from article PMC4208696 (Biophysical chemistry, 2014).

What all share (assay): fluorescence polarisation
Test [1] concerns the target T1, full-length mammalian calmodulin (CaM_(1–148)) (mammalian (no species named), UniProt P0DP23 1-149).
The target in test [2] is T2, CaM N-domain fragment, residues 1 to 80 (CaM_(1–80)) (mammalian (no species named), UniProt P0DP23 2-81).
Test [3] has as its target T3, CaM C-domain fragment, residues 76 to 148 (CaM_(76–148)) (mammalian (no species named), UniProt P0DP23 77-149).
Test [4] deals with T1, full-length mammalian calmodulin …. This is another data set of the same source.
For test [5], the target named is T2, CaM N-domain fragment, residues 1 to 80 …. The source holds these as a separate data set.
The target of test [6] is T3, CaM C-domain fragment, residues 76 to …. The source holds these as a separate data set.

Where two headings read alike, the source gives them in different places.

For orientation: Kd means the equilibrium constant for the complex coming apart. For {5,6‑carboxyfluorescein}-SRYGLLIKAFSMTAAETARRTREFR-NH2 [Fl–hRyR1(1975–1999)p: hRyR1(1975–1999)p with a 5,6-carboxyfluorescein moiety at the N-terminus], the Kd was approximately 850 µM in test [1]; approximately 7000 µM in test [2]; approximately 650 µM in test [3]; 0.66 ± 0.01 µM in test [4]; 12.5 ± 1.95 µM in test [5]; 9.21 ± 0.82 µM in test [6].

Consider {5,6‑carboxyfluorescein}-KSKKAVWHKLLSKQRRRAVVACFRMTPLYN-NH2 [Fl–hRyR1(3614–3643)p: hRyR1(3614–3643)p with a 5,6-carboxyfluorescein moiety at the N-terminus], for which the Kd is 6.79 ± 3.05 µM in test [1]; approximately 1500 µM in test [2]; 24.9 ± 4.27 µM in test [3]; not above 0.001 µM in test [4]; 2.5 ± 0.83 µM in test [5]; not above 0.01 µM in test [6].
